# Test results from the supplement of paper PMC10126150.
# ± gives the standard deviation of the averaged measurements.
# Tested on: ATP
# Assay: switch fluorescence ratio, 500 uM ATP over buffer (Cy3 cluster intensity, sum of 5 cycles each) (fold (ratio)); higher = stronger signal-on switching upon ATP binding; sequences stand for … in TCGTCGGCAGCGTCAGATGTGTATAAGAGACAGTTTTTTTTTTTTTTTTTTTTTTTTT…TC
# Conditions: aptamer strand: ATP DNA aptamer (quencher-CACCTGGGGGAGTATTGCGGAGGAAGG + anchor), 100 nM annealed; ATP concentration: 500 uM
# Outline: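 Values give the fluorescence ratio for each switch-domain sequence, averaged from per-cluster ratios of summed target-cycle to summed buffer-cycle Cy3 intensity. The Cy3-labelled switching-strand clusters sat on a modified Illumina MiSeq flow-cell, were annealed to 100 nM quencher-labelled ATP aptamer, and were imaged in selection buffer, then after 15 min with 500 uM ATP at 22 °C. Five cycles ran with NaOH stripping and re-annealing between them, and clusters outside 100-1000 RFU were excluded.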
# 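Note: ATP exposure 15 min at 22 °C before imaging.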
row,Sequence,switch fluorescence ratio
1,TCCCACTTCG,1.03 ± 0.053
2,TGGGTTAGCT,1.04 ± 0.039
3,TAAGCTTTGT,0.9902 ± 0.0025
4,CTCAGGGGGG,1.02 ± 0.04
5,TGTAATTCTA,1.011 ± 0.0032
6,ATGATGAATA,0.949 ± 0.017
7,AGTGTGGGGA,1.03 ± 0.028
8,CGGATGGGTG,0.996 ± 0.021
9,GTTGCAGCCT,0.981 ± 0.018
10,GATCCTGGGG,0.974 ± 0.054
11,GATTGGGGGC,1.04 ± 0.12
12,TATTAAGGTT,0.978 ± 0.021
13,ACATCTCGAT,0.996 ± 0.015
14,TGAGTTAGGC,1.04 ± 0.054
15,AGGTTAATGT,0.996 ± 0.032
16,ATAGACAGTG,1.02 ± 0.13
17,TGGCTTAGTT,0.9956 ± 0.0026
18,ATTAGACGGA,1.058 ± 0.0045
19,TTTATCGGGC,0.989 ± 0.019
20,GGAGAGTCCG,1.03 ± 0.036
21,TTGGATGTAC,1.14 ± 0.15
22,GTGAAGGGGA,1.09 ± 0.11
23,AGGATTGTGA,1.02 ± 0.028

row,Sequence,switch fluorescence ratio
1,TGGTTCTGGG,0.973 ± 0.013
2,TGGGTAAGGT,0.993 ± 0.028
3,ATGTCCAGGG,1.21 ± 0.04
4,GGCTTAAGGT,1.02 ± 0.064
5,GGGTTTTGTA,0.974 ± 0.018
6,CGAGGTGGCT,1.01 ± 0.028
7,ATAGAGCTTG,0.997 ± 0.024
8,GGGGGGTGGC,1.05 ± 0.15
9,GTTTTTGTGA,0.9693 ± 0.0079
10,GTCGTAGTAC,1.1974 ± 0.00024
11,ACCGAGCATG,1.36 ± 0.1
12,CTTAGTAGTT,1.01 ± 0.015
13,GCCTATGCAA,1.48 ± 0.021
14,TGCGTGCTGG,0.985 ± 0.022
15,TGTTTCTTGA,1.01 ± 0.058
16,GCTGAGGGAA,1.01 ± 0.028
17,TTTGATCAGA,1 ± 0.025
18,TTTGTGATGT,1.02 ± 0.066
19,AAGGGGGCGT,1 ± 0.026
20,CCAGA,1.022 ± 0.006
21,TCCGATGGGG,1.084 ± 0.0093
22,GTTGTTTTTA,0.987 ± 0.01
23,ATTACTTAAG,1 ± 0.046

row,Sequence,switch fluorescence ratio
1,TGAGCGGTTG,1 ± 0.018
2,GACTTAGGAC,1.02 ± 0.021
3,GGGTTGAAGG,0.9875 ± 0.0022
4,GGGAATCGGC,1 ± 0.032
5,TTTATCCGTC,0.96 ± 0.033
6,TGCATTAGGG,0.993 ± 0.046
7,CATGATGGAG,0.999 ± 0.032
8,CGATTGGGTC,0.999 ± 0.013
9,CGGGAGAGTT,0.996 ± 0.065
10,AGGATGAGCT,0.969 ± 0.032
11,CCGCATGGGG,1.49 ± 0.057
12,ATTAAGTTTC,0.9675 ± 0.0012
13,ATTAGTCGGT,0.97109 ± 0.00068
14,ACTACTACTT,1.16 ± 0.019
15,CCAATGGTGA,1.16 ± 0.068
16,AGGTTGGGT,0.973 ± 0.025
17,TTTTGTTTTA,1 ± 0.015
18,AGAAAAATAC,1.49 ± 0.67
19,TCTGTGGGTT,0.973 ± 0.051
20,AGTCGTACGG,1.004 ± 0.0096
21,TCCCCCGCCG,1.09 ± 0.12
22,ATATCGGCGT,1.55 ± 0.82
23,AGAGTCACGG,0.982 ± 0.024

row,Sequence,switch fluorescence ratio
1,GGGATAATGA,0.977 ± 0.035
2,AGGACTGTCT,0.986 ± 0.018
3,TTAGGGGGAC,1 ± 0.041
4,GCAGTAGTTA,1.03 ± 0.013
5,CGTATTTCTT,0.989 ± 0.021
6,GGGGGCAGGC,0.964 ± 0.053
7,GTTGGGGCAA,1.03 ± 0.02
8,CGGCAACGGT,1.01 ± 0.011
9,ATGCATTAAG,0.992 ± 0.051
10,TTAAGCGAGC,0.9657 ± 0.0024
11,ATAGAGTTAG,0.982 ± 0.011
12,GCTCATTTCG,1.02 ± 0.042
13,TGGGGTTGTC,0.993 ± 0.034
14,ATTGGAGGGT,0.979 ± 0.025
15,TTGTGGGTAT,0.954 ± 0.013
16,TGCAGATTTT,0.994 ± 0.033
17,CATCGATGGT,1.004 ± 0.0026
18,ACGAACGGGG,1.27 ± 0.1
19,TCAGTTGACT,1.011 ± 0.0055
20,TTTGGAGGAT,0.978 ± 0.029
21,GGCGTGGGGG,1.051 ± 0.01
22,GGTGCCTGGG,1 ± 0.0011
23,GGTGTTAGTC,1.02 ± 0.036

row,Sequence,switch fluorescence ratio
1,TTGTTAGTCA,1.0317 ± 4.4e-05
2,GCTCTATAAT,1.03 ± 0.0044
3,CCGGCGTGGC,1.36 ± 0.082
4,GAAAGGCGGG,0.985 ± 0.0041
5,CCATTTTGCC,0.9878 ± 0.00023
6,TTTGGGGTGC,1.09 ± 0.12
7,GAGGATATGT,0.971 ± 0.035
8,TGGTGAACGT,1 ± 0.053
9,GCATGGGGGG,1.02 ± 0.042
10,AGGCGAGGGG,0.988 ± 0.032
11,TGACAGTGAA,1.01 ± 0.02
12,ACGAGCCATG,1.1 ± 0.015
13,ATAGTTCCAG,1.002 ± 0.0087
14,ATCTGTGAGG,1.019 ± 0.0063
15,GACACACCCG,1.13 ± 0.046
16,TTTGAGGTGT,1.03 ± 0.012
17,ACGGTATTG,1.19 ± 0.037
18,GTCAGTGGGG,1.02 ± 0.052
19,CGATTGGAGT,0.9864 ± 0.0058
20,TTTTTAAAGC,0.995 ± 0.038
21,ACGTGGTTAG,1 ± 0.029
22,TTACTATGAA,1.039 ± 0.0071
23,TTAAATGCCT,1.07 ± 0.028

row,Sequence,switch fluorescence ratio
1,GTCAATTTGA,0.978 ± 0.062
2,GCCAATTACG,1.11 ± 0.03
3,GGGGAGGGTC,1.016 ± 0.0055
4,TTAGAAGCTT,1.03 ± 0.03
5,GCGAGGTGCA,1.03 ± 0.055
6,TTTGGGTATG,0.992 ± 0.026
7,TCATCTACTT,1.02 ± 0.041
8,AGGGGTTGTG,1 ± 0.024
9,TGTTTAAATA,1.033 ± 0.0035
10,AGGTTCCTCT,1.04 ± 0.019
11,GTTGGTTCGT,1.02 ± 0.034
12,CCGTCTACGC,1.16 ± 0.048
13,TGTTATATGC,1 ± 0.019
14,ATTGTGATGA,1.024 ± 0.0085
15,AGGTAGGTGG,1.01 ± 0.019
16,GGTGTTTATC,1 ± 0.014
17,CAAAGGTCTC,0.986 ± 0.023
18,CCGGGTGGTA,1.17 ± 0.015
19,ATGTTTATCT,0.979 ± 0.044
20,GGGGGGTGTT,1.01 ± 0.019
21,CAAAAAGGGA,1.0178 ± 0.00094
22,CACATGGTCG,0.997 ± 0.02
23,TAGGGAAAAT,0.9833 ± 0.0029

row,Sequence,switch fluorescence ratio
1,TTAAGTGCTA,0.9897 ± 0.0067
2,CGAATATTAA,0.994 ± 0.013
3,TTGAGAGATT,1.011 ± 0.0091
4,AAAGGGGTGC,1.05 ± 0.048
5,TTTGGTGGTA,0.984 ± 0.03
6,GAGGGAGTGG,1.01 ± 0.037
7,GATGATTGGT,0.998 ± 0.015
8,AAAGACGGTT,0.997 ± 0.013
9,GATTAAGGT,0.992 ± 0.014
10,AGACAAATGC,1.19 ± 0.21
11,GTGTAACGGG,0.995 ± 0.027
12,AGCGAATGGT,0.951 ± 0.012
13,TTTTTAGTAG,1.01 ± 0.03
14,ATTGTCAGTT,1.013 ± 0.0029
15,GATGTTGTAT,1.01 ± 0.021
16,TACGTTTGGG,0.981 ± 0.031
17,GGATTTATGT,0.94526 ± 0.00032
18,GGGAATTTTA,1.01 ± 0.012
19,ACTCGGGTAA,1 ± 0.017
